Holding throughout (experiment): purified protein
Common to all, as to conditions: 0.2 mM NADH, 50 mM potassium phosphate pH 7.2, 200 mM NaCl, 37 °C, error is 95% CI, kcat m^-1 [sic]

Substrate in data set [1]: O=Cc1ccc(CO)o1
The class given is biochemical, Acinetobacter calcoaceticus.

Substrate in data set [2]: O=Cc1ccccc1
Type of data set: biochemical, Acinetobacter calcoaceticus.

Substrate in data set [3]: O=Cc1ccco1
The class given is biochemical, Acinetobacter calcoaceticus.

Substrate in data set [4]: O=Cc1ccc(CO)o1
The class given is biochemical, Pseudomonas putida.

Substrate in data set [5]: O=Cc1ccccc1
Type of data set: biochemical, Pseudomonas putida.

Substrate in data set [6]: O=Cc1ccco1
The class given is biochemical, Pseudomonas putida.

Substrate in data set [7]: CCCCCC=O
Type of data set: biochemical, Burkholderia ambifaria.

Substrate in data set [8]: O=Cc1ccc(CO)o1
The class given is biochemical, Burkholderia ambifaria.

Substrate in data set [9]: O=Cc1ccccc1
Type of data set: biochemical, Burkholderia ambifaria.

Substrate in data set [10]: O=Cc1ccco1
Type of data set: biochemical, Burkholderia ambifaria.

Consider 3 proteins from paper PMC9162472, “Improved furfural tolerance in Escherichia coli mediated by heterologous NADH-dependent benzyl alcohol dehydrogenases” (Biochemical Journal, 2022).

As a reminder, the Km is the concentration of substrate that gives half-maximal velocity. The term kcat denotes the number of substrate molecules converted per active site and unit of time at saturation. What is called kcat/Km is the turnover number divided by the Michaelis constant.

B1: AcBAD (Acinetobacter calcoaceticus) (protein)
chain: MSELKDIIAAVTPCKGADFELQALKIRQPQGDEVLVKVVATGMCHTDLIVRDQYYPVPLPAVLGHEGSGIIEAIGPNVTELQVGDHVVLSYGYCGKCTQCNTGNPAYCSEFFGRNFSGADSEGNHALCTHDQGVVNDHFFAQSSFATYALSRENNTVKVTKDVPIELLGPLGCGIQTGAGACINALKVTPASSLVTWGAGAVGLSALLAAKVCGASIIIAVDIVESRLELAKQLGATHVINSKTQDPVAAIKEITDGGVNFALESTGRPEILKQGVDALGILGKIAVVGAPQLGTTAQFDVNDLLLGGKTILGVVEGSGSPKKFIPELVRLYQQGKFPFDQLVKFYAFDEINQAAIDSHKGITLKPIIKIA
As for B1, in the data set “purified protein [1]”, the Km was found to be 294 ± 277 µM, the kcat is 0.565 ± 0.146 s⁻¹ and the kcat/Km was 1670 ± 1670 M⁻¹ s⁻¹. Besides, in the data set “purified protein [2]”, the Km is 412 ± 251 µM, the kcat was determined as 6.57 ± 1.34 s⁻¹ and the kcat/Km was determined as 16700 ± 10000 M⁻¹ s⁻¹. In addition, in “purified protein [3]”, the Km stood at 359 ± 224 µM, the kcat turned out to be 2.73 ± 0.467 s⁻¹ and the kcat/Km turned out to be 8330 ± 3330 M⁻¹ s⁻¹.

B2: XylB (Pseudomonas putida) (protein)
chain: EIKAAIVRQKNGPFLLEHVALNEPAEDQVLVRLVATGLCHTDLVCRDQHYPVPLPMVFGHEGAGVVERVGSAVKKVQPGDHVVLTFYTCGSCDACLSGDPTSCANSFGPNFMGRSVTGECTIHDHQGAEVGASFFGQSSFATYALSYERNTVKVTKDVPLELLGPLGCGIQTGAGSVLNALNPPAGSSIAIFGAGAVGLSAVMAAVVAGCTKIIVVDVKENRLKLADELGATHVINAASSDPVEKIKEICAGGVPYVLETSGLPSVLQQAILSSAIGGEIGIVGAPPMGATIPVDINFLLFNRKLRGIVEGQSISDIFIPRLVELYRQGKFPFDKLLKFYSFDEINQAAEDSENGITLKPVLRIS
Take B2: in “purified protein [4]”, the Michaelis constant (Km) is 461 ± 52.1 µM, the turnover number (kcat) turned out to be 1.16 ± 0.0453 s⁻¹ and the catalytic efficiency (kcat/Km) came to 3330 ± 333 M⁻¹ s⁻¹. In “purified protein [5]”, the Km came to 21.2 ± 16.2 µM, the catalytic constant (kcat) was found to be 0.192 ± 0.0343 s⁻¹ and the kcat/Km is 8330 ± 6670 M⁻¹ s⁻¹. Moreover, in the data set “purified protein [6]”, the Km was 234 ± 153 µM, the kcat is 2.45 ± 0.467 s⁻¹ and the kcat/Km was determined as 10000 ± 6670 M⁻¹ s⁻¹.

B3: BaBAD (Burkholderia ambifaria MC40-6) (protein)
chain: MYTENDTRAVTAAVARAAGAPFSIEPARIRAPRGDEVLVRVVATGLCHTDLIVRDQYYPVPLPAVLGHEGAGVVEAVGPNVKTLAAGDHVVLTYGACGHCASCAGGHGAYCRQFFALNFGGADADGQTALRDAAGEPLHDHFFAQSSFASYALARENNAIKVPKEAPLELLGPLGCGIQTGAGAVINSLAVRTGSSFASFGAGAVGMSAVMAARIAGATTIIAVDIVPSRLALALELGATHAINSKEVDVVDAIREITGGGVDYALESTGLPAVLSQGIDALGSRGTMGVVGAPKLGTKAEFDVNSLLLGGHTIRGIVEGDSVPQTFIPQLVQLHLQGRFPFDRLVKFYPLEQINQAAADSSSGITLKPILRLPH
Turning to B3, the Km in “purified protein [7]” was 672 ± 374 µM; in “purified protein [8]”, 377 ± 242 µM; in the data set “purified protein [9]”, 78.3 ± 30 µM; in “purified protein [10]”, 75.2 ± 62.2 µM. Besides, the kcat in the data set “purified protein [7]” was 0.758 ± 0.163 s⁻¹; in the data set “purified protein [8]” it was 1.09 ± 0.192 s⁻¹; in the data set “purified protein [9]”, 0.865 ± 0.0785 s⁻¹; in “purified protein [10]” it was 0.575 ± 0.112 s⁻¹. Moreover, the kcat/Km in “purified protein [7]” is 1170 ± 667 M⁻¹ s⁻¹; in “purified protein [8]” it was 3330 ± 1670 M⁻¹ s⁻¹; in “purified protein [9]”, 11700 ± 5000 M⁻¹ s⁻¹; in the data set “purified protein [10]” it was 8330 ± 6670 M⁻¹ s⁻¹.
